Assay results as given in PMC11598966.

Key:
[1] = molecular target: Rhinovirus C15 (RV-C15) virus particles (rhinovirus C15); assay: ELISA
[2] = molecular target: Rhinovirus C15 (RV-C15) virus particles (rhinovirus C15); assay: ELISA; RV-C15 coated on the plate; native SP-A or recombinant SP-A variants at a single concentration of 10 µg/mL, with 5 mM CaCl2; A490 nm
[3] = molecular target: Rhinovirus C15 (RV-C15) virus particles (rhinovirus C15)

| Substance | A490nm at 10 µg/mL [1] [A490nm] | A490nm at 10 µg/mL [2] [A490nm] | RV-C15-GFP viral copy numbers in NECs at 48 h with rSP-A2 [A91, K223] at 400 µg/mL, percent of RV-C15-GFP infection control (% of RV-C15-GFP infection control) [3] | RV-C15-GFP viral copy numbers in NECs at 48 h with rSP-A2 [A91, Q223] at 400 µg/mL, percent of RV-C15-GFP infection control (% of RV-C15-GFP infection control) [3] |
| --- | --- | --- | --- | --- |
| Native surfactant protein A (SP-A) (from UniProt Q8IWL2 21-248; Q8IWL1 21-248) (complex) | 2.01 | – | – | – |
| Recombinant SP-A2 [A91, K223] (from UniProt Q8IWL1 21-248) (natural protein) | – | 1.19 | 40.2 | – |
| Recombinant SP-A2 [A91, Q223] (from UniProt Q8IWL1 21-248) (natural protein) | – | 0.19 | – | 54.8 |
| Recombinant SP-A2 [P91, K223] (from UniProt Q8IWL1 21-248) (natural protein) | – | 1.67 | – | – |
| Recombinant SP-A2 [P91, Q223] (from UniProt Q8IWL1 21-248) (natural protein) | 1.61 | – | – | – |
